Among the data in patent US20030026803A1 (published 2003) are binding result, koff and Kd values, retold here.

For one experiment, the target named is T1, soluble rat CD4 (rat, UniProt P05540 28-394, limits assumed).
T1 sequence (looked up): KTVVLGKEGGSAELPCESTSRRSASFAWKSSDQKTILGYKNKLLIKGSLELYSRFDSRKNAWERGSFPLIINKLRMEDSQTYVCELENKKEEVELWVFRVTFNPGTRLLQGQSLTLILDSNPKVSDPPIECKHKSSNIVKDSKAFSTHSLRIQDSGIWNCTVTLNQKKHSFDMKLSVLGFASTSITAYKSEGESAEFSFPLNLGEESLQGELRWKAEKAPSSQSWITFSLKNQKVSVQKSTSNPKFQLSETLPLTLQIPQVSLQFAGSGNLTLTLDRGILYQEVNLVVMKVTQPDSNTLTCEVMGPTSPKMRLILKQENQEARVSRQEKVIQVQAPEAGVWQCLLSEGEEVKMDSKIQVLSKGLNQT
The experiment in a line: BIAcore, 25° C; soluble rat CD4 injected over V-SIRP-CD4d3+4 flowcell and control flowcell. The method, then: FIG. 6. The NH2-terminal V domain of SIRP binds CD47. Soluble rat CD4 and hCD47-CD4d3+4 were injected into flowcells with immobilised V-SIRP-Cd4d3+4 (solid line) or control rat CD4 (dashed line).
(§1) BIAcore analysis was carried out using a BIAcore™ 2000 biosensor instrument (Biacore AB) as previously described (Brown et al., (1998) J. Exp. Med. 188:2083-90, van der Merwe, et al., (1994) Biochemistry 33:101489-60) using CM5 research grade chips. […] For equilibrium binding increasing and decreasing concentrations of monomeric hCD47-CD4d3+4 were passed over hSIRP-Fc (6500 RU). For kinetic measurements hCD47-CD4d3+4 (18.30 μM) was passed over hSIRP-Fc immobilised at 6500 RU and 3000 RU and a control, CTLA4-Fc (6300 RU). CD47mAb blocking and V-SIRP-CD4d3+4 binding experiments were carried out at 10 and 5 μl/min respectively at 25° C.
To localise the CD47 binding site on SIRP a construct containing only the NH₂-terminal V-like domain of hSIRP in frame with CD4d3+4 was made. V-SIRP-CD4d3+4 was immobilised in one flowcell via a CD4 mAb (OX68). The free OX68 in this flowcell and all the OX68 in the control flowcell was blocked with soluble rat CD4. Blocking was verified by repeating the injection of soluble rat CD4 (FIG. 6). Soluble hCD47-CD4d3+4 was then injected over both the flowcells. […]
A general note: Surface plasmon resonance follows binding to a sensor surface in real time, without labels.

Experiment [1] addresses T2, hSIRP-Fc (extracellular region of human SIRPα fused to the Fc region of human IgG) (human, UniProt P78324 31-373).
T2 construct: extracellular domain; also called human SIRP-Fc; dimeric hSIRP-Fc; not shown: human IgG Fc from vector pIg PLUS (R&D Systems)
The experiment in a line: BIAcore, 37° C; lower bound because of rebinding. The method, then: (§2) (C) Soluble hCD47 (18.3 μM) was injected over immobilised hSIRP-Fc immobilised at high (6500 RU) (filled circles) and low (3000) levels (filled up triangles), and hCTLA-4-Fc (6290 RU) (filled down triangles). Values for koff=1.6 s⁻¹ for hSIRP-Fc high, 2.1 s⁻¹ hSIRP-Fc low and 7.0 s⁻¹ for hCTLA-4-Fc were calculated by exponential decay curve fitting (line) to dissociation data (symbols).
as §1
(§3) To measure the affinity of the interaction hSIRP-Fc was directly immobilised and monomeric hCD47-CD4d3+4 passed over it. As shown in FIG. 5A hCD47-CD4d3+4 bound specifically to hSIRP-Fc in a dose dependent manner. […] The apparent rate constants were calculated as koff=1.3 s⁻¹ for the higher level of hSIRP-Fc and koff=2.1 s⁻¹ for the lower level (FIG. 5C). […]

Experiment [2] concerns the target T2, hSIRP-Fc (extracellular region of human …). The experiment in a line: BIAcore equilibrium binding at 37° C, Scatchard analysis. The method, then: as §2, §1, §3
For experiment [3] the target is unchanged. Nature of the experiment: BIAcore, 37° C; apparent rate constant, hSIRP-Fc at the higher level. As for the experimental part: as §2, §1, §3
The target is the same in experiment [4]. The experiment in a line: BIAcore, 37° C; 18.3 µM hCD47-CD4d3+4 over hSIRP-Fc at 3000 RU, exponential decay fitting. As for the experimental part: (§4) FIG. 5. Affinity and dissociation rate of soluble human CD47-CD4d3+4 binding to human SIRP-Fc. (A) Soluble monomeric hCD47-CD4d3+4 was injected at the indicated concentrations in 1 μM through flowcells immobilised hSIRP-Fc (6525 RU) (solid line), or as a negative control CTLA-4-Fc (6290 RU) (dotted line) at 37° C. (B) the difference between the response between the response at equilibrium in the hSIRP-Fc flowcell and the control flow cell is plotted against the hCD47-CD4d3+4 concentration. A kd=8.5 μM and maximal binding of 1400 RU were calculated by non linear curve fitting of the Langmuir isotherm (line) to data (circles) from A with negative control subtracted. […] (C) Soluble hCD47 (18.3 μM) was injected over immobilised hSIRP-Fc immobilised at high (6500 RU) (filled circles) and low (3000) levels (filled up triangles), and hCTLA-4-Fc (6290 RU) (filled down triangles). Values for koff=1.6 s⁻¹ for hSIRP-Fc high, 2.1 s⁻¹ hSIRP-Fc low and 7.0 s⁻¹ for hCTLA-4-Fc were calculated by exponential decay curve fitting (line) to dissociation data (symbols).
(§5) BIAcore analysis was carried out using a BIAcore™ 2000 biosensor instrument (Biacore AB) as previously described (Brown et al., (1998) J. Exp. Med. 188:2083-90, van der Merwe, et al., (1994) Biochemistry 33:101489-60) using CM5 research grade chips. […]

For experiment [5] the target is unchanged. The experiment in a line: BIAcore, 37° C; 18.3 µM hCD47-CD4d3+4 over hSIRP-Fc at 6500 RU, exponential decay fitting. As for the experimental part:
as §4, §5

For experiment [6] the target is unchanged. The experiment in a line: BIAcore equilibrium binding at 37° C, non linear curve fitting of the Langmuir isotherm; hSIRP-Fc immobilised (6525 RU), control subtracted. The method, then: as §4, §5

B1: V-SIRP-CD4d3+4 (NH2-terminal V-like domain of hSIRP in frame with rat CD4 domains 3+4) (receptor, human;rat, UniProt P78324 31-148, looked up)
chain: EEELQVIQPDKSVLVAAGETATLRCTATSLIPVGPIQWFRGAGPGRELIYNQKEGHFPRVTTVSDLTKRNNMDFSIRIGNITPADAGTYYCVKFRKGSPDDVEFKSGAGTELSVRAKPSTSITAYKSEGESAEFSFPLNLGEESLQGELRWKAEKAPSSQSWITFSLKNQKVSVQKSTSNPKFQLSETLPLTLQIPQVSLQFAGSGNLTLTLDRGILYQEVNLVVMKVTQPDSNTLTCEVMGPTSPKMRLILKQENQEARVSRQEKVIQVQAPEAGVWQCLLSEGEEVKMDSKIQVLSKGLN
notes: domain: NH2-terminal V-like domain;domain: CD4 domains 3+4; Captured on the chip via OX68; also called single SIRP V domain CD4d3+4 fusion protein
Consider B1, for which, in the experiment with soluble rat CD4, the binding result is “no binding”.

B2: hCD47-CD4d3+4 (single extracellular IgSF domain of human CD47 fused to rat CD4 domains 3+4) (ligand, human;rat, UniProt Q08722 19-136, looked up)
chain: QLLFNKTKSVEFTFCNDTVVIPCFVTNMEAQNTTEVYVKWKFKGRDIYTFDGALNKSTVPTDFSSAKIEVSQLLKGDASLKMDKSDAVSHTGNYTCEVTELTREGETIIELKYRVVSWSTSITAYKSEGESAEFSFPLNLGEESLQGELRWKAEKAPSSQSWITFSLKNQKVSVQKSTSNPKFQLSETLPLTLQIPQVSLQFAGSGNLTLTLDRGILYQEVNLVVMKVTQPDSNTLTCEVMGPTSPKMRLILKQENQEARVSRQEKVIQVQAPEAGVWQCLLSEGEEVKMDSKIQVLSKGLN
notes: extracellular domain;domain: CD4 domains 3+4; Used as a monomer in solution, or captured via OX68; also called soluble human CD47-CD4d3+4; soluble hCD47; not shown: biotinylation peptide of the CD4d3+4-biotin vector
With B2, the koff (commonly a measure of how fast the partners let go of each other) in experiment [1] was ≥ 2.1 s⁻¹; in experiment [3], 1.3 s⁻¹; in experiment [4], 2.1 s⁻¹; in experiment [5], 1.6 s⁻¹. Further, the dissociation constant Kd (commonly the concentration at which binding is half-saturated) in experiment [2] came out at 7.6 µM; in experiment [6], 8.5 µM.
